Results reported in patent CN110357960A (GUANGZHOU AISIMAI BIOMEDICAL TECH CO LTD, dated 2019).
Residue numbers refer to the chain shown, from its start.

B1: 抗Her2×抗CD3双特异性抗体MutC (bispecific antibody, human IgG1, kappa)
heavy 1: EVQLVESGGGLVQPGGSLRLSCAASGFTFNTYAMNWVRQAPGKGLEWVARIRSKYNNYATYYADSVKDRFTISRDDSKNSLYLQMNSLKTEDTAVYYCARHGNFGNSYVSWFAYWGQGTLVTVSSISSASTKGPSVFPLAPSSKSTSGGTAALGCLVKDYFPEPVTVSWNSGALTSGVHTFPAVLQSSGLYSLSSVVTVPSSSLGTQTYICNVNHKPSNTKVDKKVEPKSCDKTHTCPPCPAPELLGGPSVFLFPPKPKDTLMISRTPEVTCVVVDVSHEDPEVKFNWYVDGVEVHNAKTKPREEQYNSTYRVVSVLTVLHQDWLNGKEYKCKVSNKALPAPIEKTISKAKGQPREPQVYTLPPSREEMTKNQVSLTCLVKGFYPSDIAVEWESNGQPENNYKTTKKKLDSDGSFFLYSKLTVDKSRWQQGNVFSCSVMHEALHNHYTQKSLSLSPGK
light 1: QTVVTQEPSLTVSPGGTVTLTCGSSTGAVTTSNYANWVQEKPGQAPRGLIGGTNKRAPWTPARFSGSLLGGKAALTITGAQAEDEADYYCALWYSNLWVFGGGTKLTVLGKLVTMEIKRTVAAPSVFIFPPSDEQLKSGTASVVCLLNNFYPREAKVQWKVDNALQSGNSQESVTEQDSKDSTYSLSSTLTLSKADYEKHKVYTCEVTHQGLSSPVTKSFNRGEC
heavy 2: not shown
light 2: DIQMTQSPSSLSASVGDRVTITCRASQDVNTAVAWYQQKPGKAPKLLIYSASFLYSGVPSRFSGSRSGTDFTLTISSLQPEDFATYYCQQHYTTPPTFGQGTKLVTMEIKRTVAAPSVFICPPSDEQLKSGTASVVCLLNNFYPREAKVQWKVDNALQSGNSQESVTEQDSKDSTYSLSSTLTLSKADYEKHKVYTCEVTHQGLSSPVTKSFNRGES
B2: 抗Her2×抗CD3双特异性抗体MutC+ER (bispecific antibody)
chain 1: B1 heavy 1 with K229E
chain 2: B1 light 1 with E224R
chain 3: not shown
chain 4: B1 light 2
B3: 抗Her2×抗CD3双特异性抗体MutC-ER (bispecific antibody, human IgG1, kappa)
heavy 1: B1 heavy 1
light 1: B1 light 1
heavy 2: not shown
light 2: B1 light 2 with E216R

Molecular target: 肿瘤细胞SKBR3表面的Her2抗原 (UniProt P04626 23-1255, limits assumed)
Assay: cell-based or functional assay

| Binder | 对SKBR3细胞的杀伤 EC50浓度 (CTL, LDH release, PBMC effector cells) [ng/mL] |
| --- | --- |
| B1 | 0.045 |
| B2 | 0.055 |
| B3 | 0.034 |
